T1: TNF-R1 (a protein having the amino acid sequence, Accession No. M58286 registered at GENBANK) (UniProt P19438 30-211, limits assumed)
T1 construct: also called TNF receptor having a molecular weight of 55 kilo daltons
T1 sequence (looked up): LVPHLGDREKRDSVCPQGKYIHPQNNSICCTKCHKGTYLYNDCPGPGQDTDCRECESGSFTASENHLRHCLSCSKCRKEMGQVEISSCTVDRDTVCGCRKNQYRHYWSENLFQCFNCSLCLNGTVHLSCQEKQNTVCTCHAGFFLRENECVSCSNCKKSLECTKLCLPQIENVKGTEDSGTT

T2: TNF-R2 (a protein having the amino acid sequence, Accession No. M55994 registered at GENBANK) (UniProt P20333 23-257, limits assumed)
T2 construct: also called TNF receptor with 75 kilo daltons
T2 sequence (looked up): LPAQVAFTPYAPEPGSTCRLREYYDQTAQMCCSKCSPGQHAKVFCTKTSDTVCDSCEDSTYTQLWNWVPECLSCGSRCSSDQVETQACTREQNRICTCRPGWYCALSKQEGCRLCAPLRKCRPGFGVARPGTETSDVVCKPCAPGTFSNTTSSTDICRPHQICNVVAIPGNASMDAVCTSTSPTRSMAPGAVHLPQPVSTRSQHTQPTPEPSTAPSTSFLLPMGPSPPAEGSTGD

T3: TNF-R1 on HEp-2 cells (human, UniProt P19438 30-455)
T3 sequence (looked up): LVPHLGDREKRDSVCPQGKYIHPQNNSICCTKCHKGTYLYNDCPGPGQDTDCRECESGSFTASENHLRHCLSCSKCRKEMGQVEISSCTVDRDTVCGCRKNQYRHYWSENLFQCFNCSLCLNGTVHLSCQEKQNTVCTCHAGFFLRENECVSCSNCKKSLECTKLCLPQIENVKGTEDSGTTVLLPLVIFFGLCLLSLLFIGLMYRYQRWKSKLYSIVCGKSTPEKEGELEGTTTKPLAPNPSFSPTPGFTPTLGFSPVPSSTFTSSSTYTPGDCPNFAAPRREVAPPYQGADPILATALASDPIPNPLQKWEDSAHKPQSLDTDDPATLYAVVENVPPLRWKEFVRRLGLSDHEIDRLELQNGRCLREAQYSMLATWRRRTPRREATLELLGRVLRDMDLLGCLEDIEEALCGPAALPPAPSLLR

T4: TNF-R1 on L-M cells (mouse, UniProt P25118 30-454)
T4 sequence (looked up): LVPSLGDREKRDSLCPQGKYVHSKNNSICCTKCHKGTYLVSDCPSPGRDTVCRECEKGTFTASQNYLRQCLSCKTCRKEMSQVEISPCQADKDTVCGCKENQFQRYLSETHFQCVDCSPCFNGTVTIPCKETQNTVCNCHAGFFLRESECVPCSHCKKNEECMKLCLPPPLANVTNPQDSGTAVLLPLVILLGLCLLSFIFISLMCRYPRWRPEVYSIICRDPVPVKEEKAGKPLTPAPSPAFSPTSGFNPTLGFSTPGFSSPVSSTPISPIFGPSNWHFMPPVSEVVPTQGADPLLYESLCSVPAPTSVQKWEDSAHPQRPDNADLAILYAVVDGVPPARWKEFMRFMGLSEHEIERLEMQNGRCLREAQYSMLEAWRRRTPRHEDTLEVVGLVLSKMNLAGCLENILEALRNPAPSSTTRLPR


Experiments:
[1] = molecular target: T1, TNF-R1 (a protein having the amino acid …); assay: SPR (BIACORE 2000), receptor on sensor tip; grade 3 = 0.5 to 2 times that of recombinant TNF-α
Excerpt: (§1) Using the above detector based on surface plasmon resonance effect again, the resulting clones binding to TNF-R1 (or TNF-R2) were subjected to the remaining sensor tip conjugated with TNF-R2 (or TNF-R1) to measure receptor binding affinity and select clones having a variation of receptor binding affinity. […] The resulting DNAs were digested with restrict enzymes NdeI and BamHI to obtain DNA fragments. The resulting DNA fragments were introduced into a plasmid vector containing T7 promoter region, T7 terminator region, ampicillin resistant gene region and ColE1/Ori region (product name “pET-3a”, manufactured by “Novagen®” (EMD Biosciences, Inc.)) at the position of the above restriction sites. The resulting plasmid was introduced into E. coli BL21DE3 strain to obtain a transformed E. coli for producing the TNF mutant proteins. The obtained transformed E. coli was cultured according to usual method and centrifuged to collect E. coli pellet. The resulting pellet was washed twice with TES buffer (pH 8.0) (20 mM Tris-HCl, 10 mM ethylene diamine tetraacetic acid and 0.5 M sodium chloride) and admixed with TES buffer (pH 8.0) containing 0.2 mg/ml lysozyme. The resulting suspension was sonicated according to usual manner, and centrifuged to collect a precipitate containing the produced TNF mutant protein. The resulting precipitate was treated three times in a manner of admixing with TES buffer containing 1 (w/w) % Triton X-100, removed from supernatant by centrifuging, admixed with 50 mM Tris-HCl (pH 7.0) containing 8 M guanidine hydrochloride and 50 mM dithiothreitol, with stirring for 16 hours at ambient temperature under shielded condition, and centrifuged to collect a supernatant. The resulting supernatant was gently admixed with 100 time volumes of a aqueous solution containing 1 M Tris, 0.9 (w/v) % sodium chloride, 0.4 M L-arginine chloride, 2.5 mM reduced glutathione, 0.5 mM oxidized glutathione and 0.05 (w/v) % Tween 20, and kept at 4° C. for 16 hours.

[2] = molecular target: T2, TNF-R2 (a protein having the amino acid …); assay: SPR (BIACORE 2000), receptor on sensor tip; grade 1 = 0.001 to 0.1 time that of recombinant TNF-α
Excerpt: as §1

TNF-R1 on HEp-2 cells = molecular target: T3, TNF-R1 on HEp-2 cells; assay: cell-based or functional assay
TNF-R1 on L-M cells = molecular target: T4, TNF-R1 on L-M cells; assay: cell-based or functional assay
[3] = molecular target: T1, TNF-R1 (a protein having the amino acid …); assay: SPR (BIACORE 2000), receptor on sensor tip; grade 4 = two times or more that of recombinant TNF-α
Excerpt: as §1

Binder | binding affinity relative to recombinant TNF-α [1] | binding affinity relative to recombinant TNF-α [2] | Viability (%) of HEp-2 cells, 10 ng/ml TNF-α + 1,000 ng/ml TNF antagonist (9 without antagonist) (TNF-R1 on HEp-2 cells) | Viability (%) of HEp-2 cells, 10 ng/ml TNF-α + 10,000 ng/ml TNF antagonist (9 without antagonist) (TNF-R1 on HEp-2 cells) | Viability (%) of HEp-2 cells, 10 ng/ml TNF-α + 100,000 ng/ml TNF antagonist (9 without antagonist) (TNF-R1 on HEp-2 cells) | Viability (%) of HEp-2 cells, 10 ng/ml TNF-α + 500,000 ng/ml TNF antagonist (9 without antagonist) (TNF-R1 on HEp-2 cells) | Viability (%) of L-M cells, 10 ng/ml TNF-α + 1,000 ng/ml TNF antagonist (17 without antagonist) (TNF-R1 on L-M cells) | Viability (%) of L-M cells, 10 ng/ml TNF-α + 10,000 ng/ml TNF antagonist (17 without antagonist) (TNF-R1 on L-M cells) | Viability (%) of L-M cells, 10 ng/ml TNF-α + 100,000 ng/ml TNF antagonist (17 without antagonist) (TNF-R1 on L-M cells) | Viability (%) of L-M cells, 10 ng/ml TNF-α + 500,000 ng/ml TNF antagonist (17 without antagonist) (TNF-R1 on L-M cells) | binding affinity relative to recombinant TNF-α [3]
TNF mutant protein of clone No. 6 (ligand, Mutant of lysine-replaced TNF, made in E. coli; stop codon at position 147) VRSSSRTPSDMPVAHVVANPQAEGQLQWSNRYANALLANGVELRDNQLVVPSEGLYLIYSQVLFSGQGCPSTHVLLTHTISRIAVSYQTPVNLLSAIRSPCQRETPEGAEANPWYEPIYLGGVFQLEPGDRLSAEINRPDYLDFSM | 0.5 to 2 fold | 0.001 to 0.1 fold | – | – | – | – | – | – | – | – | –
TNF mutant protein of clone No. 1 (ligand, Mutant of lysine-replaced TNF, made in E. coli) VRSSSRTPSDMPVAHVVANPQAEGQLQWQNRWANALLANGVELRDNQLVVPSEGLYLIYSQVLFSGQGCPSTHVLLTHTISRIAVSYQTPVNLLSAIRSPCQRETPEGAEANPWYEPIYLGGVFQLEPGDRLSAEINRPDYLDFAESGQVYFGIIAL | 0.5 to 2 fold | 0.001 to 0.1 fold | – | – | – | – | – | – | – | – | –
TNF mutant protein of clone No. 29 (ligand, Mutant of lysine-replaced TNF, made in E. coli) VRSSSRTPSDMPVAHVVANPQAEGQLQWLNRRANALLANGVELRDNQLVVPSEGLYLIYSQVLFSGQGCPSTHVLLTHTISRITEQYSHPVNLLSAIRSPCQRETPEGAEANPWYEPIYLGGVFQLEPGDRLSAEINRPDYLDFAESGQVYFGIIAL | 0.5 to 2 fold | 0.001 to 0.1 fold | – | – | – | – | – | – | – | – | –
TNF mutant protein of clone No. 17 (ligand, Mutant of lysine-replaced TNF, made in E. coli) VRSSSRTPSDMPVAHVVANPQAEGQLQWLNRRANALLANGVELRDNQLVVPSEGLYLIYSQVLFSGQGCPSTHVLLTHTISRISKTYTHPVNLLSAIRSPCQRETPEGAEANPWYEPIYLGGVFQLEPGDRLSAEINRPDYLDFAESGQVYFGIIAL | 0.5 to 2 fold | 0.001 to 0.1 fold | – | – | – | – | – | – | – | – | –
TNF mutant protein of clone No. 22 (ligand, Mutant of lysine-replaced TNF, made in E. coli) VRSSSRTPSDMPVAHVVANPQAEGQLQWLNRRANALLANGVELRDNQLVVPSEGLYLIYSQVLFSGQGCPSTHVLLTHTISRISRVYTAPVNLLSAIRSPCQRETPEGAEANPWYEPIYLGGVFQLEPGDRLSAEINRPDYLDFAESGQVYFGIIAL | 0.5 to 2 fold | 0.001 to 0.1 fold | – | – | – | – | – | – | – | – | –
TNF mutant protein of clone No. 28 (ligand, Mutant of lysine-replaced TNF, made in E. coli) VRSSSRTPSDMPVAHVVANPQAEGQLQWLNRRANALLANGVELRDNQLVVPSEGLYLIYSQVLFSGQGCPSTHVLLTHTISRITKSYSKPVNLLSAIRSPCQRETPEGAEANPWYEPIYLGGVFQLEPGDRLSAEINRPDYLDFAESGQVYFGIIAL | 0.5 to 2 fold | 0.001 to 0.1 fold | – | – | – | – | – | – | – | – | –
TNF mutant protein of clone No. 37 (ligand, Mutant of lysine-replaced TNF, made in E. coli; also called TNF antagonist of clone No. 37) VRSSSRTPSDMPVAHVVANPQAEGQLQWLNRRANALLANGVELRDNQLVVPSEGLYLIYSQVLFSGQGCPSTHVLLTHTISRISTTHNQPVNLLSAIRSPCQRETPEGAEANPWYEPIYLGGVFQLEPGDRLSAEINRPDYLDFAESGQVYFGIIAL | 0.5 to 2 fold | 0.001 to 0.1 fold | 11% | 18% | 43% | 75% | 42% | 51% | 59% | 72% | –
TNF mutant protein of clone No. 3 (ligand, Mutant of lysine-replaced TNF, made in E. coli) VRSSSRTPSDMPVAHVVANPQAEGQLQWLNSDANALLANGVELRDNQLVVPSEGLYLIYSQVLFSGQGCPSTHVLLTHTISRIAVSYQTPVNLLSAIRSPCQRETPEGAEANPWYEPIYLGGVFQLEPGDRLSAEINRPDYLDFAARGQVYFGIIAL | 0.5 to 2 fold | 0.001 to 0.1 fold | – | – | – | – | – | – | – | – | –
TNF mutant protein of clone No. 36 (ligand, Mutant of lysine-replaced TNF, made in E. coli; also called TNF antagonist of clone No. 36) VRSSSRTPSDMPVAHVVANPQAEGQLQWLNRRANALLANGVELRDNQLVVPSEGLYLIYSQVLFSGQGCPSTHVLLTHTISRIAPGYSHPVNLLSAIRSPCQRETPEGAEANPWYEPIYLGGVFQLEPGDRLSAEINRPDYLDFAESGQVYFGIIAL | 0.5 to 2 fold | 0.001 to 0.1 fold | 12% | 13% | 38% | 74% | 43% | 54% | 63% | 59% | –
TNF mutant protein of clone No. 18 (ligand, Mutant of lysine-replaced TNF, made in E. coli) VRSSSRTPSDMPVAHVVANPQAEGQLQWLNRRANALLANGVELRDNQLVVPSEGLYLIYSQVLFSGQGCPSTHVLLTHTISRISPLYPKPVNLLSAIRSPCQRETPEGAEANPWYEPIYLGGVFQLEPGDRLSAEINRPDYLDFAESGQVYFGIIAL | – | 0.001 to 0.1 fold | – | – | – | – | – | – | – | – | ≥ 2 fold
TNF mutant protein of clone No. 38 (ligand, Mutant of lysine-replaced TNF, made in E. coli; also called TNF antagonist of clone No. 38) VRSSSRTPSDMPVAHVVANPQAEGQLQWLNRRANALLANGVELRDNQLVVPSEGLYLIYSQVLFSGQGCPSTHVLLTHTISRIGGPYQRPVNLLSAIRSPCQRETPEGAEANPWYEPIYLGGVFQLEPGDRLSAEINRPDYLDFAESGQVYFGIIAL | 0.5 to 2 fold | 0.001 to 0.1 fold | 11% | 22% | 72% | 95% | 42% | 47% | 58% | 70% | –

Source: patent publication US20100222258A1 (KABUSHIKI KAISHA HAYASHIBARA SEIBUTSU KAGAKU KENKYUJO, published 2010)
